± gives the uncertainty stated by the source.

A short description of this series: amyloid nucleation score (Sup35N fusion, yeast selection) (log enrichment); library NNK3; higher = more nucleation; inactive = no reads after selection. The method in brief:
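The nucleation score is a DiMSum log enrichment of output over input reads, centred on the mode score of non-aggregating sequences. Sequences under 100 input reads were excluded, and reads came from Illumina sequencing of plasmid inserts. Psi-negative yeast expressing Sup35N fused to peptides of 20 random codons were induced with 100 μM copper sulfate for 24 hours and grown 7 days at 30°C on medium lacking adenine and uracil. Random libraries had three technical output replicates.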
With LLNYFRLMCYRSFL, the amyloid nucleation score entry was “inactive”. TIATLRF: the amyloid nucleation score result was “inactive”. With CLGLHQILM the entry was “inactive”; with YSKYSYSCVDGMIW, “inactive”; with VLFCRFSSWV, 0.739 ± 0.26.

Turning to CHDVLIKWNMVCTSVVEGEH, the amyloid nucleation score result was “inactive”. With VRIKFCAWKLGYGSTGNVHI the figure was 0.657 ± 0.2; with QFSMLMVVLCP, “inactive”; with DVHWISGKSNYSDDNRCYST, “inactive”.

With GATFVRILSRLIRLSFI, the amyloid nucleation score result was “inactive”. With RIHDNVPSIVWFWEPPHPRH the entry was “inactive”; with YAAEYYVVQVIG, “inactive”; with VFLSICSEGTFCLGDLSGCV, 2.43 ± 0.082. Then RSDMTAHDTNDAVQLEPSVE, with “inactive”; and FIWIIMVGNNVPNT, with 2.06 ± 0.093. With TRFLATECITSDEVVYWVTM the entry was “inactive”; with FVILFVVFNYINALCDCNID, 0.377 ± 0.27. Regarding FVYTHIWGVGLGKML, the amyloid nucleation score turned out to be 0.632 ± 0.14.

WGDIEVFFSYVVYLSIWRES: the amyloid nucleation score result is “inactive”. In the case of YRNMFQPRRNEAARQQLSST, the amyloid nucleation score entry was “inactive”. Then QRMTNFLLGRVSV, with “inactive”; and HSRTMVLMCIAMIRVLGYGF, with “inactive”. With GFLMGSE the entry was “inactive”; with NAYSSLQWREIVSHIYQSCQ, “inactive”. With IIIVKCT the entry was “inactive”; with SLSATCLCTVMSTNFIFYVF, 0.509 ± 0.41; with CYADPG, “inactive”. For the substance DTFMDSMLYTGLSIPCKVLL, the amyloid nucleation score was -0.116 ± 1.4.

Consider SCVGVRVLCSAVV, for which the amyloid nucleation score result is “inactive”. Take SCRNCDYLLCGNYHT: the amyloid nucleation score result was “inactive”.

For YSMDTPCFINSGVFSADPNL, the amyloid nucleation score entry was “inactive”.

For the substance RFFAIL, the amyloid nucleation score result was “inactive”.

For the substance SQTIYGI, the amyloid nucleation score result was “inactive”. Then GNNPLVVKNLNRKCL, with -0.357 ± 0.51; and CLNFFPSNSWILFILMIVQK, with “inactive”. With DHFMNGMKQYTCRYFVLWPS the entry was “inactive”. Then CWSSIYSNDQDFYWKSPLLS, with “inactive”; and SGRSRWNAH, with “inactive”. Turning to VDFRYCCGFV, the amyloid nucleation score came out at 0.824 ± 0.26. Then SAACLIMCVLLSILVQIFGM, with “inactive”; and SFNSQSSRRVDNQRWVNLNF, with 0.886 ± 0.11. With TSLLAELLVWWE the entry was “inactive”. For the substance FIWIT, the amyloid nucleation score result was “inactive”. Then GGSCLSNPVGKYGILWWMLS, with “inactive”; and HLSSNVLNYVLNFHWFCNFG, with 0.836 ± 0.16. Then WPFHWSFSFVISMYMSWGNS, with “inactive”. As to DWHAIFTMFECNMQRGKSAR, the amyloid nucleation score worked out at 0.113 ± 0.31. With TSTYSFCTRVWYPASIIFGR the entry was “inactive”; with WQPDTVKGEVLLRVGTMLSV, “inactive”; with MIMYIGVCVSVGLFEDYAYR, 0.044 ± 0.49. Then FCENRFTSFLKNVIIW, with 0.398 ± 0.18; and GWSFAWCTRVRVMGKVAVWW, with “inactive”. In the case of RVEVSSTGV, the amyloid nucleation score entry was “inactive”. For the substance ACFLVFGIYQEVMHDCIGRS, the amyloid nucleation score result is “inactive”. Then ITVFNLILM, with 2.61 ± 0.058. Then CIAYNMVSDYVSIGFNAGDM, with “inactive”; and AEQCEPLWCFWKKRSL, with 0.792 ± 0.18. The substance NSMHAATWLEARRRLDKEGF showed an amyloid nucleation score of -0.753 ± 1.3. Consider ILGKRC, for which the amyloid nucleation score entry is “inactive”. Then ARAYRDQGWPEKEIAQHK, with “inactive”; and CNPQTFSFVLMVRLCSKSGV, with “inactive”. Substance AWRAISDKTDGGSYDKSVIV gave an amyloid nucleation score of -0.364 ± 0.8. With SFVSSMCVTGEKVEGSRPCC the entry was “inactive”; with CYWVRDSRLGW, “inactive”; with DNWFN, “inactive”.

As to VFVTM, the amyloid nucleation score entry is “inactive”. With IFNKVSLYNEMLVWVLTWSW the entry was “inactive”. With LFYDCELGLTSVRWLGWGRN the entry was “inactive”; with INIWSMYYMILLLFFIIYRL, 0.55 ± 0.24; with YLIDVGL, “inactive”. Then RSDGRCEYKSWCNVQLKVE, with “inactive”; and STWRASIVPSFMVRGCWSIK, with “inactive”; and LVVRNVEVPIHR, with “inactive”. Substance CFCDVMQFWM came in with an amyloid nucleation score of 2.4 ± 0.067.

For the substance HKPCRCKTMLWDLAIVGSLE, the amyloid nucleation score result is “inactive”. Then WVFVRMMVELINMTAAFAVS, with “inactive”; and SLSSRGLYLSKDLMPILNYR, with “inactive”; and VKKDMRRLLMFRIGGKSFGG, with “inactive”.

Turning to SCRIMSRYGAQIWCDPTYQA, the amyloid nucleation score result is “inactive”. For the substance WYHSQNVINCRQSVVTMKHN, the amyloid nucleation score result was “inactive”.

On to FMTSEWRMGMYGVSGRITWE, for which the amyloid nucleation score turned out to be 0.73 ± 0.24. With FNVLSDPACVRPGLVVRVSE, the amyloid nucleation score entry was “inactive”. With IWCSRAGVRWVEMNVEQVYW, the amyloid nucleation score entry was “inactive”. Then LGSLPGGETLHCLNRFQRLS, with “inactive”. As for TTKEVESNSAHCPKSSLACT, the amyloid nucleation score entry is “inactive”. With SIISMDKDRTLAHTDHQV the entry was “inactive”; with SYHYHATILSWTYYVTVYFL, “inactive”; with FPMSIESDSLNSGRGLRPWG, “inactive”. With LWYTSSSRGWPISLSSMW the entry was “inactive”. With YYFCMLS the figure was 2.55 ± 0.072; with YSNYCGQFSIVPIVFFYIVI, 1.1 ± 0.15. Turning to LTIAIWVMYKDQYFCLWHLL, the amyloid nucleation score entry was “inactive”.

With VGSLIGMNYGF, the amyloid nucleation score entry is “inactive”. Then VLLVF, with “inactive”.

Turning to SCAECDMRWHMGGCICFVLG, the amyloid nucleation score entry was “inactive”. Then YRHICKYCFGQPVGHH, with -1.1 ± 1.9; and SFSCVHDDCRKLLQLRLDST, with “inactive”; and LSQVFLVMFKF, with “inactive”.

In turn, FLMNDSCDRTIWFNVFLSNS showed an amyloid nucleation score of 0.7 ± 0.18. In the case of YVIITGRKQGITNM, the amyloid nucleation score result was “inactive”.

As to FVGIIGWMIYVEGVY, the amyloid nucleation score result is “inactive”. Substance PCQDWARYAPGLPLPMGLAL showed an amyloid nucleation score of -0.293 ± 0.89. Then LSRGFYAS, with “inactive”; and QLMPKRAVKRDYRDSSWSGV, with “inactive”. With SPWYVVFMCNLIFYKGEFTR the entry was “inactive”; with YNMFACGVCTLFKVGKANKF, 2.96 ± 0.074. For YRDTICPYETAREDMNYLLG, the amyloid nucleation score result was “inactive”. As for FVCYNTFSSSACSLCNHLSH, the amyloid nucleation score came out at 2.4 ± 0.053. With TVIFWWLKGNRPVSMIDSDI the entry was “inactive”.

As to TNITWYTRVLNGLYYTM, the amyloid nucleation score entry is “inactive”.

DDFSVPTDLIDVRRVS yielded an amyloid nucleation score of -0.047 ± 1. Then DGLYSTNQRSIAPHLTQPID, with “inactive”. For RMGIYCGDRFQ, the amyloid nucleation score entry is “inactive”. In the case of RYWWYHSYRNGSGSLESYGV, the amyloid nucleation score entry is “inactive”.

Substance AVVIGDDEVVSDYCLLL had an amyloid nucleation score of 0.377 ± 0.27. Then WYGDNRGIMYVLGSRINWRY, with 1.34 ± 0.087; and ILHKGNS, with “inactive”.

Turning to FYGFGGISIRSGVVGIVDMK, the amyloid nucleation score result was “inactive”.

In the case of CTHHKNACL, the amyloid nucleation score result was “inactive”. Then FLRLKFRAYDP, with 1.01 ± 0.11; and YIVNLGKFKCQNLMRSCRLK, with 1.07 ± 0.12. Consider RFNMCGEYGKVHGLGW, for which the amyloid nucleation score entry is “inactive”. Then FKYLVIVNNWG, with 2.82 ± 0.071; and SMATNCTDR, with “inactive”; and WNPCVHTLGI, with “inactive”. As to TLSRFPLGNCF, the amyloid nucleation score result is “inactive”. Take NFFVTFICAFEEAYMTKQLR: the amyloid nucleation score came out at 2 ± 0.082.

In the case of LRKFFHLLQIIMERNINRSI, the amyloid nucleation score entry is “inactive”.

For the substance CLGGQRHDVLPVCCWEFIME, the amyloid nucleation score entry is “inactive”. Then SRSSCRVIPT, with “inactive”; and IYSHSPLFLRRYGAIYESCR, with “inactive”; and NGINNCSEIKHVCTGLANPV, with “inactive”.

MAPPNIWFQCQ: the amyloid nucleation score entry was “inactive”.
